Results on twelve sequences are retold here after the supplement of paper PMC10201428.

± gives the standard deviation of the averaged measurements.

Data set [1] relates to VchCAST RNA-guided transposition machinery (E. coli BL21(DE3) host, lacZ target). The data set is described as follows: relative integration efficiency (T-LR orientation) vs wild-type transposon end (log2 (normalized fold change)); transposon end mutated: left end; higher = more efficient transposition. The method, boiled down: (§1)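 Each barcoded pool, 1549 left-end or 1849 right-end transposon variants in a pUC57 mini-transposon donor, went into E. coli BL21(DE3) with a T7-driven effector plasmid (CRISPR array, tniQ-cas8-cas7-cas6, tnsA-tnsB-tnsC). Plates contained 0.1 mM IPTG and were held at 37°C for 18 h. Input plasmids and genomic integration junctions were PCR-amplified and read by Illumina sequencing, with two biological output replicates and four reference barcodes. Relative integration efficiency is the fold change of output over input barcode abundance, normalised to the reference barcodes and log-transformed.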

Data set [2] has the same test system. Kind of data set: relative integration efficiency (T-RL orientation) vs wild-type transposon end (log2 (normalized fold change)); transposon end mutated: left end; higher = more efficient transposition. The method, boiled down:
as §1

“AATGTTGTTGATGCAACCATATATTGATATCTCATAATTATTTATAATCAGCAACTTAACCACAAAACAACCATAAAATGATAATTAACAAAAGTTGGTATTCAACTATAAAATGTGAATCGAGTATTTCAGCAAAACTACTGCAGTAAGAA”: the “relative integration efficiency (log2)” value in data set [1] was -1.34 ± 1; in data set [2] it was -3.2 ± 1.5.
Turning to “AATGTTGTTGATGCAACCATATATTGATATCTCATAATTATTTATAATCAGCAACTTAACCACAAAACAACCATAAAGTGATATTTAACAAAAGTTGGTATTCAACTATAAAATGTGAATCGAGTATTTCAGCAAAACTACTGCAGTAAGAA”, the “relative integration efficiency (log2)” value in data set [1] was -1.75 ± 1.5; in data set [2], -3.25 ± 1.2.
The corresponding values for “AATGTTGTTGATGCAACCATATATTGATATCTCATAATTATTTATAATCAGCAACTTAACCACAAAACAACCATAAGTTGATATTTTACAAAAGTTGGTATTCAACTATAAAATGTGAATCGAGTATTTCAGCAAAACTACTGCAGTAAGAA” are -1.84 ± 0.76 and -3.58 ± 1.4.
Regarding “AATGTTGTTGATGCAACCATATATTGATATCTCATAATTATTTATAATCAGCAACTTAACCACAAAACAACCATATATTGATATCTCACAAAAGTTGGTATTCAACTATAAAATGTGAATCGAGTATTTCAGCAAAACTACTGCAGTAAGAA”, the “relative integration efficiency (log2)” value in data set [1] is -2.34 ± 0.9; in data set [2], -3.5 ± 1.4.
Taken in the same sequence, the figures for “AATGTTGTTGATGCAACCATATATTGATATCTCATAATTATTTATAATCAGCAACTTAACCACAAAACACCCATAAATTGATAATTAACAAAAGTTGGTATTCAACTATAAAATGTGAATCGAGTATTTCAGCAAAACTACTGCAGTAAGAA” were -1.08 ± 1.5 and -3.56 ± 1.4.
The corresponding values for “AATGTTGTTGATGCAACCATATATTGATATCTCATAATTATTTATAATCAGCAACTTAACCACAAAACACCCATAAATTGATATTGCACAAAAGTTGGTATTCAACTATAAAATGTGAATCGAGTATTTCAGCAAAACTACTGCAGTAAGAA” are -2.2 ± 1.6 and -4.07 ± 1.2.
Taken in the same sequence, the figures for “AATGTTGTTGATGCAACCATATTCACATATTTAATAATTATTTATAATCAGCAACTTAACCACAAAACAACCATAATAACATATCTCACAAAACAACCATATCAACATATTTTTGTGAATCGAGTATTTCAGCAAAACTACTGCAGTAAGAA” were < -10 and -7.41 ± 0.33.
For the sequence “AATGTTGTTGATGCAACCATCCCTGTCGCGGGCCGCCGGCGGGCGCCGACTACCAGGCCAACACCCCACCAACGCGCGGTCGCGAGACACCCCACCAACGCCTGGTCGCGGGGGTGTCCGATCTGATTTCAGCAAAACTACTGCAGTAAGAA”, the “relative integration efficiency (log2)” value in data set [1] is -9.26 ± 0.31; in data set [2], < -10.
The corresponding values for “AATGTTGTTGATGCACCCATAAATTGATAATTAATAATTATTTATAATCAGCAACTTAACCACAAAACAACCATAAAATGATAATTAACAAAAGTTGGTATTCAACTATAAAATGTGAATCGAGTATTTCAGCAAAACTACTGCAGTAAGAA” are -0.947 ± 1.4 and -2.86 ± 1.1.
For “AATGTTGTTGATGCACCCATAAATTGATAATTAATAATTATTTATAATCAGCAACTTAACCACAAAACAACCATAAAGTGATATTTAACAAAAGTTGGTATTCAACTATAAAATGTGAATCGAGTATTTCAGCAAAACTACTGCAGTAAGAA”, the figures for the “relative integration efficiency (log2)” value in data set [1] and in data set [2] were -1.55 ± 1.7 and -2.92 ± 1.1, respectively.
With “AATGTTGTTGATGCACCCATAAATTGATAATTAATAATTATTTATAATCAGCAACTTAACCACAAAACAACCATAAGTTGATATTTTACAAAAGTTGGTATTCAACTATAAAATGTGAATCGAGTATTTCAGCAAAACTACTGCAGTAAGAA”, the “relative integration efficiency (log2)” value in data set [1] was -1.17 ± 0.98; in data set [2], -3.01 ± 1.1.
Taken in the same sequence, the figures for “AATGTTGTTGATGCACCCATAAATTGATAATTAATAATTATTTATAATCAGCAACTTAACCACAAAACAACCATATATTGATATCTCACAAAAGTTGGTATTCAACTATAAAATGTGAATCGAGTATTTCAGCAAAACTACTGCAGTAAGAA” were -1.82 ± 1.9 and -2.76 ± 1.1.
